Results taken from US10000771B2, “Nuclear targeting sequences” (Yeda Research and Development Co. Ltd., priority 2007, dated 2018).

Tests used:
[1] = tested on: COS7 cells; experiment: Subcellular fractionation of GFP-ERK2 constructs; type: cell-based; settings: 48 hr after transfection, serum-starved
Procedure: FIG. 6 is an autoradiograph illustrating the subcellular fractionation of WT-GFP-ERK2 (WT), APA-GFP-ERK2 (APA), or EPE-GFP-ERK2 (EPE). COS7 cells were grown in 10 cm plates and transfected with the above ERK2 constructs. Twenty-four hr after transfection the cells were serum-starved for 16 hr and subjected to cellular fractionation as described under materials and Methods. Western blot analysis of aliquots of the fractions were stained with anti GFP Ab to detect the ERK2 and its mutant, and with anti tubulin and anti c-Jun Abs as markers for the cytoplasmic and nuclear fractions respectively.
Cellular Fractionation: Transfected COS7 cells were starved (0.1% FBS) for 16 h, after which they were washed with ice-cold PBS, suspended in ice-cold buffer H, and centrifuged (12,000×g, 5 min). Then, the nuclear and cytosolic fractions were isolated as described [H. Rubinfeld, T. Hanoch, R. Seger, J. Biol. Chem. 274, 30349 (1999)]. Briefly, the pellets were suspended in 0.1% NP-40 followed by centrifugation (12,000×g, 5 min). The supernatant, containing the cytosolic fraction, was boiled in sample buffer. The pellet was suspended in extraction buffer (420 mM Nacl, 50 mM β-glycerophosphate, 0.5 mM Na3VO4, 1.5 mM MgCl2, 0.2 mM EDTA, 1 mM DTT, 25% glycerol), incubate on ice for 10 min, sonicated (50 W, 2×7 sec), and centrifuged (12,000×g, 5 min). […]

[2] = tested on: CHO cells; experiment: Fluorescence microscopy of ERK2 constructs (subcellular localization); type: cell-based; settings: overexpressed in CHO (and COS7) cells, serum-starved, fluorescent microscope
Procedure: FIGS. 1A-1R are photomicrographs illustrating the role of SPS in the non-regulated accumulation of ERK2 in the nucleus. CHO (FIGS. 1A-F and 1M-R) or COS7 cells (FIGS. 1G-L) were grown on cover slips and transfected with WT-ERK2, or the mutants 244-6A and Δ244-6. Twenty-four hr following transfection, the cells were serum-starved (16 hr), fixed, stained with DAPI and visualized using a fluorescent microscope.
FIGS. 2A-2X are photomicrographs illustrating the role of SPS in the stimulated nuclear translocation of ERK2. CHO cells were grown on cover slips and co-transfected with HA-MEK1 together with either WT-ERK2, 244-6A, or Δ244-6. Twenty-four hr after transfection, the cells were serum starved for 16 hours, treated with TPA (250 nM, 15 min), except in WT-10 where the cells were treated with 10 nM TPA for 15 min. After treatments the cells were fixed and stained with either anti-HA Ab or DAPI.
FIGS. 5A-5F are photomicrographs illustrating that mutating the Ser residues in the SPS to Glu induces the nuclear accumulation of ERK2. CHO cells were grown on cover slips and transfected with WT-GFP-ERK2 (WT), APA-GFP-ERK2 (APA), or EPE-GFP-ERK2 (EPE). Twenty-four hr after transfection, the cells were serum-starved, fixed, stained with DAPI and visualized by a fluorescent microscope.
FIGS. 7A-7H are photomicrographs illustrating that EPE-ERKs translocates to the nucleus faster than WT-ERK. CHO cells were transfected with WT-GFP-ERK2 (WT) and EPE-GFP-ERK2 (EPE). Eight (FIGS. 7A-D) or twelve (FIGS. 7E-H) hours after transfection the cells were fixed, stained with DAPI and visualized by a fluorescent microscope.
Immunofluorescence Microscopy. Cells were fixed (30 min in 3% paraformaldehyde in PBS or 10 min with ice-cold methanol), followed by 5-min permeabilization with 0.2% Triton X-100 in PBS (23° C.). The fixed cells were sequentially incubated with the appropriate Abs (45 min) followed by rhodamine-conjugated secondary Abs (45 min) and DAPI. Slides were visualized using a fluorescence microscope (Nikon, Japan) at 400× magnifications. […]

[3] = tested on: Nup153c; experiment: Interaction with recombinant His-Nup153c; type: binding; settings: immunoprecipitated ERK2 incubated with 0.5 μg recombinant His-Nup153c
Procedure: FIGS. 19A-19C are autoradiographs illustrating that phospho-SPS interacts with importin-7 and releases Nup153c binding without involvment of importin-β. […]. Interaction of ERK2 with Importin-7 is enhanced by EGF stimulation and EPE mutation. HeLa cells overexpressing WT-ERK (WT), ERK-APA (APA), ERK-EPE (EPE) or GFP were serum starved and treated with EGF (50 ng/ml, 10 min). The extracts of the treated cells were then subjected to coimmunoprecipitation using A/G beads pre-conjugated with anti GFP Ab and mild washes. The coimmunoprecipitated importin-7 (first panel) and importin-β (third panel), as well as their loading amounts (panels 2 and 4 respectively) were determined by WB using anti importin-7 (αImp7) and importin-β (αImpβ) Abs. The equal amount of immunoprecipitated ERKs was determined with anti GFP (αGFP; IP) Ab. FIG. 19B. Interaction of 2GFP-SPS and its mutants with importin-7. HeLa cells overexpressing 2GFP, 2GFP-SPS, 2GFP-APA and 2GFP-EPE constructs were subjected to coimmunoprecipitation as described in FIG. 19A (without EGF stimulation). FIG. 19C. Interaction of NUP153 with WTERK2 and its APA and EPE mutants. NUP153c is elevated in APA-ERK2, but reduced in EPE-ERK2. Immunoprecipitated and stringently washed WT-ERK2 (WT), APA-ERK2 (APA) or ERK2 from […] cells pre-treated with or without TPA (250 nM, 15 min) were incubated with 0.5 μg recombinant His-Nup153c. […]

B1: APA-ERK2: GFP-ERK2 with the two Ser residues of the SPS sequence replaced by Ala (protein)
chain: MAAAAAAGPEMVRGQVFDVGPRYTNLSYIGEGAYGMVCSAYDNLNKVRVAIKKISPFEHQTYCQRTLREIKILLRFRHENIIGINDIIRAPTIEQMKDVYIVQDLMETDLYKLLKTQHLSNDHICYFLYQILRGLKYIHSANVLHRDLKPSNLLLNTTCDLKICDFGLARVADPDHDHTGFLTEYVATRWYRAPEIMLNSKGYTKSIDIWSVGCILAEMLSNRPIFPGKHYLDQLNHILGILGAPAQEDLNCIINLKARNYLLSLPHKNKVPWNRLFPNADSKALDLLDKMLTFNPHKRIEVEQALAHPYLEQYYDPSDEPIAEAPFKFDMELDDLPKEKLKELIFEETARFQPGYRS
modifications: left off: large carriers
localized in the nucleus [1]: ~5%
subcellular localization in quiescent cells [2]: cytoplasmic distribution
interaction with Nup153 [3]: increased
